Consider seven molecules from patent publication US12104181B2, “Compositions and methods for treating viral infections targeting TRIM7” (THE BOARD OF REGENTS OF THE UNIVERSITY OF TEXAS SYSTEM, priority 2021, dated 2024).

The assay deals with coxsackievirus B3 (CVB3-GFP). The assay is classed as cell-based. As to conditions: HeLa cells, replicate R1; for Percent Infected R1: GFP-positive cells within RFP-positive gate.

B1: TRIM20: human RING type E3 ligase expressed from lentiviral vector (protein, UniProt O15553 1-781, looked up)
Pyrin: MAKTPSDHLLSTLEELVPYDFEKFKFKLQNTSVQKEHSRIPRSQIQRARPVKMATLLVTYYGEEYAVQLTLQVLRAINQRLLAEELHRAAIQEYSTQENGTDDSAASSSLGENKPRSLKTPDHPEGNEGNGPRPYGGGAASLRCSQPEAGRGLSRKPLSKRREKASEGLDAQGKPRTRSPALPGGRSPGPCRALEGGQAEVRLRRNASSAGRLQGLAGGAPGQKECRPFEVYLPSGKMRPRSLEVTISTGEKAPANPEILLTLEEKTAANLDSATEPRARPTPDGGASADLKEGPGNPEHSVTGRPPDTAASPRCHAQEGDPVDGTCVRDSCSFPEAVSGHPQASGSRSPGCPRCQDSHERKSPGSLSPQPLPQCKRHLKQVQLLFCEDHDEPICLICSLSQEHQGHRVRPIEEVALEHKKKIQKQLEHLKKLRKSGEEQRSYGEEKAVSFLKQTEALKQRVQRKLEQVYYFLEQQEHFFVASLEDVGQMVGQIRKAYDTRVSQDIALLDALIGELEAKECQSEWELLQDIGDILHRAKTVPVPEKWTTPQEIKQKIQLLHQKSEFVEKSTKYFSETLRSEMEMFNVPELIGAQAHAVNVILDAETAYPNLIFSDDLKSVRLGNKWERLPDGPQRFDSCIIVLGSPSFLSGRRYWEVEVGDKTAWILGACKTSISRKGNMTLSPENGYWVVIMMKENEYQASSVPPTRLLIKEPPKRVGIFVDYRVGSISFYNVTARSHIYTFASCSFSGPLQPIFSPGTRDGGKNTAPLTICPVGGQGPD
modifications: lentiviral expression
notes: human RING type E3 ligase expressed from lentiviral vector
On to B1, for which the “Percent Infected R1” value was 78.8% and the “Z score R1” value was −0.125.

B2: TRIM19: human RING type E3 ligase expressed from lentiviral vector (protein, UniProt P29590 1-882, looked up)
Protein PML: MEPAPARSPRPQQDPARPQEPTMPPPETPSEGRQPSPSPSPTERAPASEEEFQFLRCQQCQAEAKCPKLLPCLHTLCSGCLEASGMQCPICQAPWPLGADTPALDNVFFESLQRRLSVYRQIVDAQAVCTRCKESADFWCFECEQLLCAKCFEAHQWFLKHEARPLAELRNQSVREFLDGTRKTNNIFCSNPNHRTPTLTSIYCRGCSKPLCCSCALLDSSHSELKCDISAEIQQRQEELDAMTQALQEQDSAFGAVHAQMHAAVGQLGRARAETEELIRERVRQVVAHVRAQERELLEAVDARYQRDYEEMASRLGRLDAVLQRIRTGSALVQRMKCYASDQEVLDMHGFLRQALCRLRQEEPQSLQAAVRTDGFDEFKVRLQDLSSCITQGKDAAVSKKASPEAASTPRDPIDVDLPEEAERVKAQVQALGLAEAQPMAVVQSVPGAHPVPVYAFSIKGPSYGEDVSNTTTAQKRKCSQTQCPRKVIKMESEEGKEARLARSSPEQPRPSTSKAVSPPHLDGPPSPRSPVIGSEVFLPNSNHVASGAGEAEERVVVISSSEDSDAENSSSRELDDSSSESSDLQLEGPSTLRVLDENLADPQAEDRPLVFFDLKIDNETQKISQLAAVNRESKFRVVIQPEAFFSIYSKAVSLEVGLQHFLSFLSSMRRPILACYKLWGPGLPNFFRALEDINRLWEFQEAISGFLAALPLIRERVPGASSFKLKNLAQTYLARNMSERSAMAAVLAMRDLCRLLEVSPGPQLAQHVYPFSSLQCFASLQPLVQAAVLPRAEARLLALHNVSFMELLSAHRRDRQGGLKKYSRYLSLQTTTLPPAQPAFNLQALGTYFEGLLEGPALARAEGVSTPLAGRGLAERASQQS
Take B2: the “Percent Infected R1” value came out at 60.8% and the “Z score R1” value is on record as −0.354.

B3: RLIM: human RING type E3 ligase expressed from lentiviral vector (protein, UniProt Q9NVW2 1-624, looked up)
E3 ubiquitin-protein ligase …: MENSDSNDKGSGDQSAAQRRSQMDRLDREEAFYQFVNNLSEEDYRLMRDNNLLGTPGESTEEELLRRLQQIKEGPPPQNSDENRGGDSSDDVSNGDSIIDWLNSVRQTGNTTRSGQRGNQSWRAVSRTNPNSGDFRFSLEINVNRNNGSQNSENENEPSARRSSGENVENNSQRQVENPRSESTSARPSRSERNSTEALTEVPPTRGQRRARSRSPDHRRTRARAERSRSPLHPMSEIPRRSHHSISSQTFEHPLVNETEGSSRTRHHVTLRQQISGPELLSRGLFAASGTRNASQGAGSSDTAASGESTGSGQRPPTIVLDLQVRRVRPGEYRQRDSIASRTRSRSQTPNNTVTYESERGGFRRTFSRSERAGVRTYVSTIRIPIRRILNTGLSETTSVAIQTMLRQIMTGFGELSYFMYSDSDSEPTGSVSNRNMERAESRSGRGGSGGGSSSGSSSSSSSSSSSSSSSSSSSSPSSSSGGESSETSSDLFEGSNEGSSSSGSSGARREGRHRAPVTFDESGSLPFLSLAQFFLLNEDDDDQPRGLTKEQIDNLAMRSFGENDALKTCSVCITEYTEGNKLRKLPCSHEYHVHCIDRWLSENSTCPICRRAVLASGNRESVV
As for B3, the “Percent Infected R1” value is 82% and the “Z score R1” value is given as −0.08.

B4: TRIM23: human RING type E3 ligase expressed from lentiviral vector (protein, UniProt P36406 1-574, looked up)
E3 ubiquitin-protein ligase …: MATLVVNKLGAGVDSGRQGSRGTAVVKVLECGVCEDVFSLQGDKVPRLLLCGHTVCHDCLTRLPLHGRAIRCPFDRQVTDLGDSGVWGLKKNFALLELLERLQNGPIGQYGAAEESIGISGESIIRCDEDEAHLASVYCTVCATHLCSECSQVTHSTKTLAKHRRVPLADKPHEKTMCSQHQVHAIEFVCLEEGCQTSPLMCCVCKEYGKHQGHKHSVLEPEANQIRASILDMAHCIRTFTEEISDYSRKLVGIVQHIEGGEQIVEDGIGMAHTEHVPGTAENARSCIRAYFYDLHETLCRQEEMALSVVDAHVREKLIWLRQQQEDMTILLSEVSAACLHCEKTLQQDDCRVVLAKQEITRLLETLQKQQQQFTEVADHIQLDASIPVTFTKDNRVHIGPKMEIRVVTLGLDGAGKTTILFKLKQDEFMQPIPTIGFNVETVEYKNLKFTIWDVGGKHKLRPLWKHYYLNTQAVVFVVDSSHRDRISEAHSELAKLLTEKELRDALLLIFANKQDVAGALSVEEITELLSLHKLCCGRSWYIQGCDARSGMGLYEGLDWLSRQLVAAGVLDVA
With B4, the “Percent Infected R1” value is listed as 61.5% and the “Z score R1” value is on record as −0.345.

B5: TRIM24: human RING type E3 ligase expressed from lentiviral vector (protein, UniProt O15164 1-1050, looked up)
Transcription intermediary …: MEVAVEKAVAAAAAASAAASGGPSAAPSGENEAESRQGPDSERGGEAARLNLLDTCAVCHQNIQSRAPKLLPCLHSFCQRCLPAPQRYLMLPAPMLGSAETPPPVPAPGSPVSGSSPFATQVGVIRCPVCSQECAERHIIDNFFVKDTTEVPSSTVEKSNQVCTSCEDNAEANGFCVECVEWLCKTCIRAHQRVKFTKDHTVRQKEEVSPEAVGVTSQRPVFCPFHKKEQLKLYCETCDKLTCRDCQLLEHKEHRYQFIEEAFQNQKVIIDTLITKLMEKTKYIKFTGNQIQNRIIEVNQNQKQVEQDIKVAIFTLMVEINKKGKALLHQLESLAKDHRMKLMQQQQEVAGLSKQLEHVMHFSKWAVSSGSSTALLYSKRLITYRLRHLLRARCDASPVTNNTIQFHCDPSFWAQNIINLGSLVIEDKESQPQMPKQNPVVEQNSQPPSGLSSNQLSKFPTQISLAQLRLQHMQQQVMAQRQQVQRRPAPVGLPNPRMQGPIQQPSISHQQPPPRLINFQNHSPKPNGPVLPPHPQQLRYPPNQNIPRQAIKPNPLQMAFLAQQAIKQWQISSGQGTPSTTNSTSSTPSSPTITSAAGYDGKAFGSPMIDLSSPVGGSYNLPSLPDIDCSSTIMLDNIVRKDTNIDHGQPRPPSNRTVQSPNSSVPSPGLAGPVTMTSVHPPIRSPSASSVGSRGSSGSSSKPAGADSTHKVPVVMLEPIRIKQENSGPPENYDFPVVIVKQESDEESRPQNANYPRSILTSLLLNSSQSSTSEETVLRSDAPDSTGDQPGLHQDNSSNGKSEWLDPSQKSPLHVGETRKEDDPNEDWCAVCQNGGELLCCEKCPKVFHLSCHVPTLTNFPSGEWICTFCRDLSKPEVEYDCDAPSHNSEKKKTEGLVKLTPIDKRKCERLLLFLYCHEMSLAFQDPVPLTVPDYYKIIKNPMDLSTIKKRLQEDYSMYSKPEDFVADFRLIFQNCAEFNEPDSEVANAGIKLENYFEELLKNLYPEKRFPKPEFRNESEDNKFSDDSDDDFVQPRKKRLKSIEERQLLK
Turning to B5, the “Percent Infected R1” value stood at 69.5% and the “Z score R1” value is reported as −0.243.

B6: TRIM26: human RING type E3 ligase expressed from lentiviral vector (protein, UniProt Q12899 1-539, looked up)
Tripartite motif-containing …: MATSAPLRSLEEEVTCSICLDYLRDPVTIDCGHVFCRSCTTDVRPISGSRPVCPLCKKPFKKENIRPVWQLASLVENIERLKVDKGRQPGEVTREQQDAKLCERHREKLHYYCEDDGKLLCVMCRESREHRPHTAVLMEKAAQPHREKILNHLSTLRRDRDKIQGFQAKGEADILAALKKLQDQRQYIVAEFEQGHQFLREREEHLLEQLAKLEQELTEGREKFKSRGVGELARLALVISELEGKAQQPAAELMQDTRDFLNRYPRKKFWVGKPIARVVKKKTGEFSDKLLSLQRGLREFQGKLLRDLEYKTVSVTLDPQSASGYLQLSEDWKCVTYTSLYKSAYLHPQQFDCEPGVLGSKGFTWGKVYWEVEVEREGWSEDEEEGDEEEEGEEEEEEEEAGYGDGYDDWETDEDEESLGDEEEEEEEEEEEVLESCMVGVARDSVKRKGDLSLRPEDGVWALRLSSSGIWANTSPEAELFPALRPRRVGIALDYEGGTVTFTNAESQELIYTFTATFTRRLVPFLWLKWPGTRLLLRP
modifications: lentiviral expression
notes: as for B1
With B6, the “Percent Infected R1” value came to 49.3% and the “Z score R1” value was −0.5.

B7: TRIM22: human RING type E3 ligase expressed from lentiviral vector (protein, UniProt Q8IYM9 1-498, looked up)
E3 ubiquitin-protein ligase …: MDFSVKVDIEKEVTCPICLELLTEPLSLDCGHSFCQACITAKIKESVIISRGESSCPVCQTRFQPGNLRPNRHLANIVERVKEVKMSPQEGQKRDVCEHHGKKLQIFCKEDGKVICWVCELSQEHQGHQTFRINEVVKECQEKLQVALQRLIKEDQEAEKLEDDIRQERTAWKNYIQIERQKILKGFNEMRVILDNEEQRELQKLEEGEVNVLDNLAAATDQLVQQRQDASTLISDLQRRLRGSSVEMLQDVIDVMKRSESWTLKKPKSVSKKLKSVFRVPDLSGMLQVLKELTDVQYYWVDVMLNPGSATSNVAISVDQRQVKTVRTCTFKNSNPCDFSAFGVFGCQYFSSGKYYWEVDVSGKIAWILGVHSKISSLNKRKSSGFAFDPSVNYSKVYSRYRPQYGYWVIGLQNTCEYNAFEDSSSSDPKVLTLFMAVPPCRIGVFLDYEAGIVSFFNVTNHGALIYKFSGCRFSRPAYPYFNPWNCLVPMTVCPPSS
For the molecule B7, the “Percent Infected R1” value is listed as 49.4% and the “Z score R1” value is listed as −0.499.
